{
  "source": "patent US20240124539A1",
  "about": "(NEW YORK UNIVERSITY, published 2024)",
  "binders": {"B1": {"name": "CHD^Sos-3 (designed binder)", "chain 1": "Ac-AIGRLCTEILRLRNGA-NH2", "chain 2": "Ac-LAWRLRELERELARLC-NH2", "modifications": "linker I:6-II:16 via dibenzylether crosslinker(3)", "notes": "also called CHC^Sos-3; CHD-3"}, "B2": {"name": "FITC-CHD^Sos-2 (designed binder)", "chain 1": "Ac-WIGRLCTEILRLRNGN-NH2", "chain 2": "{FITC′}-A[βAla]LAWRLRELERELARLC-NH2", "modifications": "linker I:6-II:18 via dibenzylether crosslinker; not fully specified", "notes": "Crosslinked helix dimer; form used in the fluorescence polarization assay; also called CHC^Sos-2 (fluorescein-derivatized); CHD-2"}, "B3": {"name": "FITC-CHD^Sos-6 (designed binder)", "chain 1": "Ac-WIGRLCTEIRRLRNGN-NH2", "chain 2": "{FITC}-A[βAla]LAWRLRELERELARLC-NH2", "modifications": "linker I:6-II:18 via dibenzylether crosslinker″; not fully specified", "notes": "Crosslinked helix dimer; form used in the fluorescence polarization assay; also called CHC^Sos-6 (fluorescein-derivatized)"}, "B4": {"name": "FITC-CHD^Sos-4 (designed binder)", "chain 1": "Ac-WIGRLCTEILRLRNGN-NH2", "chain 2": "{FITC′}-A[βAla]LAWALRELERELARLC-NH2", "modifications": "linker I:6-II:18 via dibenzylether crosslinker; not fully specified", "notes": "Crosslinked helix dimer; form used in the fluorescence polarization assay; also called CHC^Sos-4 (fluorescein-derivatized); CHD-4"}},
  "key": {"[1]": {"target": "T1, fluorescently-labeled wild-type H-Ras-GDP (MST) (UniProt P01112 1-166, cysteine-reactive dye (Monolith RED-MALEIMIDE 2nd Generation or AFDye 647 maleimide) on cysteine, degree of label 0.43)", "T1 construct": "range 1-166; also called fluorescently-labeled Ras; wild-type H-Ras labeled with AFDye 647; not shown: N-terminal His6 tag from pProEx HTb", "experiment": "microscale thermophoresis (column MST of the drawn table); fluorescently labelled wild-type H-Ras-GDP with serial dilutions of the unlabelled CHD"}, "[2]": {"target": "T2, wild-type His6-tagged H-Ras (1-166) pre-loaded with GDP (UniProt P01112 1-166)", "T2 construct": "range 1-166; also called His6-H-Ras-GDP; not shown: N-terminal His6 tag with TEV site from the pProEx HTb vector", "experiment": "fluorescence polarization, fluorescein-labelled CHD, His6-H-Ras-GDP titrated"}, "[3]": {"target": "T2, wild-type His6-tagged H-Ras (1-166) …", "experiment": "fluorescence polarization, fluorescein-labelled CHD (15 nM), His6-H-Ras-GDP titrated", "description": "(§1) The generated binding affinity (KD) values for each compound are from biological triplicate studies and were determined via fitting to a sigmoidal dose-response nonlinear regression model on Graphpad Prism 6."}, "[4]": {"target": "T2, wild-type His6-tagged H-Ras (1-166) …", "experiment": "direct fluorescence polarization; fluorescein-labelled CHD titrated with GDP-loaded WT H-Ras", "description": "as §1"}},
  "note": "Positions of bridges follow the written chain, without caps; N, C: chain ends. Non-standard residues stand in square brackets, D forms with d. Primed or numbered codes have the meaning given here. Chains are numbered I, II in the order given. *: point of attachment. dibenzylether crosslinker″ = crosslinker alkylating both cysteine thiols, drawn in Scheme 1 and; dibenzylether crosslinker = scaffold alkylating both cysteine thiols (drawn in Scheme 1 and; dibenzylether crosslinker(3) = scaffold alkylating both cysteine thiols (Scheme 1; FITC = O=C1OC2(c3ccc(O)cc3Oc3cc(O)ccc32)c2ccc(NC(=S)*)cc21; FITC′ = fluorescein isothiocyanate, linked via thiourea; βAla = NCCC(=O)O",
  "data": [
    {"binder": "B1", "values": [
      {"measurement": "Kd", "setting": "[1]", "result": "> 10", "unit": "µM"}
    ]},
    {"binder": "B2", "values": [
      {"measurement": "fold enhancement in binding affinity over CHC^Sos-1", "setting": "[2]", "result": 10, "unit": "fold"},
      {"measurement": "Kd", "setting": "[3]", "result": 2.8, "unit": "µM"},
      {"measurement": "Kd", "setting": "[4]", "result": 2.79, "unit": "µM"}
    ]},
    {"binder": "B3", "values": [
      {"measurement": "fold reduction in affinity against CHC^Sos-5", "setting": "[2]", "result": 4, "unit": "fold"},
      {"measurement": "Kd", "setting": "[3]", "result": 8.6, "unit": "µM"}
    ]},
    {"binder": "B4", "values": [
      {"measurement": "Kd", "setting": "[3]", "result": 40, "unit": "µM"},
      {"measurement": "Kd", "setting": "[4]", "result": 40.4, "unit": "µM"}
    ]}
  ]
}
